Among the data in patent publication US20240261333A1, “NOVEL TARGETS FOR ENHANCING ANTI-TUMOR IMMUNITY” (THE BROAD INSTITUTE, INC., priority 2021, published 2024) are co-IP mass spectrometry count values, retold here.

One assay addresses RPS18 (UniProt P62269). The assay is described as follows: co-IP, IgG control, C-FLAG B3GNT2 cell lysate, mass spectrometry.
In the next assay the target is SPRR2E (UniProt P22531). In words: co-IP with anti-FLAG, mass spectrometry; N-FLAG B3GNT2.
The target of the next assay is ATP5F1B (UniProt P06576). Described as above.
The next assay concerns the target UBA52 (UniProt P62987). Described as above.
The target of another assay is S100A9 (UniProt P06702). The description is as above.
The next assay deals with SERPINB12 (UniProt Q96P63). Described as above.
The next assay addresses FABP5 (UniProt Q01469). The assay is described as above.
The target of the next assay is TRIM21 (UniProt P19474). Described as above.
For the next assay, the target named is ACTR3 (UniProt P61158). The description is as above.
The target of a further assay is AHNAK (UniProt Q09666). The assay is described as above.
In another assay the target is S100A8 (UniProt P05109). Described as above.
In a further assay the target is PPIA (UniProt P62937). The description is as above.
The next assay has as its target PCMT1 (UniProt P22061). The description is as above.
The target of a further assay is YWHAZ (UniProt P63104). The assay is described as above.
The next assay deals with ENO1 (UniProt P06733). The assay is described as above.
The next assay deals with STRAP (UniProt Q9Y3F4). The assay is described as above.
A further assay addresses SSR1 (UniProt P43307). The description is as above.
A further assay addresses C1orf68 (human) (UniProt Q5T750). In words: co-IP, anti-FLAG, lysate of cells with N-FLAG B3GNT2; mass spectrometry.
The next assay has as its target SAMM50 (human) (UniProt Q9Y512). The description is as above.
The target in another assay is HUWE1 (human) (UniProt Q7Z6Z7). Described as above.
Another assay has as its target RPL18 (human) (UniProt Q07020). Described as above.
A further assay deals with MARS (human) (UniProt P56192). The assay is described as follows: co-IP with anti-FLAG, mass spectrometry; lysate of cells with N-FLAG B3GNT2.
For another assay, the target named is EPRS (human) (UniProt P07814). The assay is described as above.
The next assay has as its target DNAJB11 (human) (UniProt Q9UBS4). Described as above.
The target in the next assay is ILF3 (human) (UniProt Q12906). The assay is described as above.
A further assay has as its target MSN (human) (UniProt P26038). The description is as above.
The target of another assay is PIGR (human) (UniProt P01833). The description is as above.
In the next assay the target is SPRR1A (human) (UniProt P35321). Described as above.
For another assay, the target named is ARF4 (human) (UniProt P18085). Described as above.
Another assay addresses PSMD4 (human) (UniProt P55036). The assay is described as above.
In the next assay the target is EIF4A1 (human) (UniProt P60842). Described as above.
For another assay, the target named is SLC25A5 (human) (UniProt P05141). The assay is described as above.
The next assay addresses MYO1C (human) (UniProt O00159). The assay is described as above.
Another assay has as its target ZC3HAV1 (human) (UniProt Q7Z2W4). The assay is described as above.
In another assay the target is HSPD1 (human) (UniProt P10809). The description is as above.
The target in a further assay is ARHGEF2 (human) (UniProt Q92974). Described as above.
A further assay deals with UGGT1 (human) (UniProt Q9NYU2). The description is as above.
For the next assay, the target named is RPS27 (human) (UniProt P42677). Described as above.
The next assay concerns the target SEL1L (human) (UniProt Q9UBV2). The assay is described as above.

MARS (human), sequence (P56192 whole entry): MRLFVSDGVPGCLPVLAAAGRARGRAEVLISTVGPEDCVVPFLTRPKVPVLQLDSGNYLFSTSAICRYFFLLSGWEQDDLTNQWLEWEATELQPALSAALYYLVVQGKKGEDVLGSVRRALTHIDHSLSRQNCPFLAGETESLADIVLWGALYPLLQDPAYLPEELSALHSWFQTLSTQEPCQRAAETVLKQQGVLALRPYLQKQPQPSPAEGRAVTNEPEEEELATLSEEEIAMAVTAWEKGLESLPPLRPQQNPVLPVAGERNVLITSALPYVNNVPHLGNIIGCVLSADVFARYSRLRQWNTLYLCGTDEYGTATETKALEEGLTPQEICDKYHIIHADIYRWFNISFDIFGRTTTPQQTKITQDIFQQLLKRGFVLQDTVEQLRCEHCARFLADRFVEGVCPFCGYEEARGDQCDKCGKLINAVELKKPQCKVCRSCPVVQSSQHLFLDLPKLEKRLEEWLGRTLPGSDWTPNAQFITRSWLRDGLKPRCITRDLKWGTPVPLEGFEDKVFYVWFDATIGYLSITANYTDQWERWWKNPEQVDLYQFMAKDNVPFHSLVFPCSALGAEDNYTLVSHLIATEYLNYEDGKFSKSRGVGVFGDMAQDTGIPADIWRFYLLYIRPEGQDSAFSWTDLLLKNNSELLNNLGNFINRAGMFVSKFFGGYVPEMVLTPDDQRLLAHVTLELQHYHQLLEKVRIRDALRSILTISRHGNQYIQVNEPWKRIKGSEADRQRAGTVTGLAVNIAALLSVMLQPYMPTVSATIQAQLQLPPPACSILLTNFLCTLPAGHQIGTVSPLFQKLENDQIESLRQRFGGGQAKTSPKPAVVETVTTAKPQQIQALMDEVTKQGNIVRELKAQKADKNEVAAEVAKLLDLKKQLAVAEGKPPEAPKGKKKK
SEL1L (human), sequence (Q9UBV2 22-794 limits assumed): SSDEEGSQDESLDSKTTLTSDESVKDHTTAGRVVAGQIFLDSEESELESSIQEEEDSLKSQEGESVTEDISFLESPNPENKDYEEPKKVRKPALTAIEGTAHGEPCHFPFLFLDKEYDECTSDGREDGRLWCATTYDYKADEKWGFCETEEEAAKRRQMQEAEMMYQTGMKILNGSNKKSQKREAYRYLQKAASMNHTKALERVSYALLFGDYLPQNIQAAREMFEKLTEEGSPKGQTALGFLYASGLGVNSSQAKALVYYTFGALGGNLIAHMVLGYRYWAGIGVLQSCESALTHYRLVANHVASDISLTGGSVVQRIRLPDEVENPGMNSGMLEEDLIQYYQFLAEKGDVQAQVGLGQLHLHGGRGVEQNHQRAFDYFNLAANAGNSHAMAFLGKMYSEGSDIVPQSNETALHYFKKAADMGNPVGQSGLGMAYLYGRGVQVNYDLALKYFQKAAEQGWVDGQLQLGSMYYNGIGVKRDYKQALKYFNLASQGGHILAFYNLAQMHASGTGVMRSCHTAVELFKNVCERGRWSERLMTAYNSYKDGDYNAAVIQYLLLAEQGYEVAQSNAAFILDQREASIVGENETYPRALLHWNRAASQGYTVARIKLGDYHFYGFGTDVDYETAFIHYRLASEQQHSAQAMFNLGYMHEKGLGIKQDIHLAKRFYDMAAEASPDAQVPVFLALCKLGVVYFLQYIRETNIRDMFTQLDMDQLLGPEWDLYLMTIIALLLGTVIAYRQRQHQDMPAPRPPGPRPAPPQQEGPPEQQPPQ
HSPD1 (human), sequence (P10809 27-573 limits assumed): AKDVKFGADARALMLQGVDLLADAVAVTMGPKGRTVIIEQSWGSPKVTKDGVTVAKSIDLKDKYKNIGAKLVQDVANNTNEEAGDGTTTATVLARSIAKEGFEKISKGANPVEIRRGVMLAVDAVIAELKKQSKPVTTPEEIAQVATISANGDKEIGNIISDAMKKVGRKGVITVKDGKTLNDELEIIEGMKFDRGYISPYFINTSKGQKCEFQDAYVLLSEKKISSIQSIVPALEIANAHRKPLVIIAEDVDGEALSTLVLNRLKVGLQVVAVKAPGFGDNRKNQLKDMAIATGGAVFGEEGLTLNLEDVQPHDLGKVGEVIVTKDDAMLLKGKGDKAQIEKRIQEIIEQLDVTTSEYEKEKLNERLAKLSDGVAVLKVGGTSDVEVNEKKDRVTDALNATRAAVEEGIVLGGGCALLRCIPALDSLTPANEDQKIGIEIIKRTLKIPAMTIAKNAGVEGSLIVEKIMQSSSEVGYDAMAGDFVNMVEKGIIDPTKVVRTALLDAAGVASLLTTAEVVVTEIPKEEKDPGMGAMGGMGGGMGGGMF
EIF4A1 (human), sequence (P60842 2-406 limits assumed): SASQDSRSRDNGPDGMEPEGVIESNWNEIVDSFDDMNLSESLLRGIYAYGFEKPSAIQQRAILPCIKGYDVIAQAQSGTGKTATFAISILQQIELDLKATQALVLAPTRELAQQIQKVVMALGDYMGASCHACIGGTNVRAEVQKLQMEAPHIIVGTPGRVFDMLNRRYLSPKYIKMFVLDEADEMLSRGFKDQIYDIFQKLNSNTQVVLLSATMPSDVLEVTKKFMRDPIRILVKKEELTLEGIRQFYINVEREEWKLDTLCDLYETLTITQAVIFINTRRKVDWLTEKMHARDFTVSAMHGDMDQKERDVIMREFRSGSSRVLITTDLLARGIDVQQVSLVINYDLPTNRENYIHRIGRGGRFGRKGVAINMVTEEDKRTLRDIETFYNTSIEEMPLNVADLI
SAMM50 (human), sequence (Q9Y512 whole entry): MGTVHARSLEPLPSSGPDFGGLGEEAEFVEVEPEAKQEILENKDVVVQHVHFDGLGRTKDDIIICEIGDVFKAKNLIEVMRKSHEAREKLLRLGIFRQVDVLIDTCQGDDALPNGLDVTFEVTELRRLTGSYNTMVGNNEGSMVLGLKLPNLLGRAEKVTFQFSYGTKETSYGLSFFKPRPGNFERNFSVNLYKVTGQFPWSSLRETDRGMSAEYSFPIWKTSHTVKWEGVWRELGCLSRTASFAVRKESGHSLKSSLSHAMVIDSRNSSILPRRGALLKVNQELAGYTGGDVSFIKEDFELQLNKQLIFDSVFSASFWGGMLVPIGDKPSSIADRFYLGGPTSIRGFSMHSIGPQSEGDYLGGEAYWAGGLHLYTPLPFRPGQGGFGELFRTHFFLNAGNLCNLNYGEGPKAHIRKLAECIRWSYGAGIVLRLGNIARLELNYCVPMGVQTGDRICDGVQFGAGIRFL
SLC25A5 (human), sequence (P05141 2-298 limits assumed): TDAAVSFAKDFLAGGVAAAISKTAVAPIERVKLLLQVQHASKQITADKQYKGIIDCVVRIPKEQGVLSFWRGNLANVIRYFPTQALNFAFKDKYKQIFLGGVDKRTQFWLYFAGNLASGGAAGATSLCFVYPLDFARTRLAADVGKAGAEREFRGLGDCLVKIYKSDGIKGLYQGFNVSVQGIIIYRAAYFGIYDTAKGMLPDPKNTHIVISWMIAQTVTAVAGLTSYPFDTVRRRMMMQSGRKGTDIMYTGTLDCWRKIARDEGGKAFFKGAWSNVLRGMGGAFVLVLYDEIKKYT
MYO1C (human), sequence (O00159 other isoform, or with tags, fused parts or gaps limits assumed): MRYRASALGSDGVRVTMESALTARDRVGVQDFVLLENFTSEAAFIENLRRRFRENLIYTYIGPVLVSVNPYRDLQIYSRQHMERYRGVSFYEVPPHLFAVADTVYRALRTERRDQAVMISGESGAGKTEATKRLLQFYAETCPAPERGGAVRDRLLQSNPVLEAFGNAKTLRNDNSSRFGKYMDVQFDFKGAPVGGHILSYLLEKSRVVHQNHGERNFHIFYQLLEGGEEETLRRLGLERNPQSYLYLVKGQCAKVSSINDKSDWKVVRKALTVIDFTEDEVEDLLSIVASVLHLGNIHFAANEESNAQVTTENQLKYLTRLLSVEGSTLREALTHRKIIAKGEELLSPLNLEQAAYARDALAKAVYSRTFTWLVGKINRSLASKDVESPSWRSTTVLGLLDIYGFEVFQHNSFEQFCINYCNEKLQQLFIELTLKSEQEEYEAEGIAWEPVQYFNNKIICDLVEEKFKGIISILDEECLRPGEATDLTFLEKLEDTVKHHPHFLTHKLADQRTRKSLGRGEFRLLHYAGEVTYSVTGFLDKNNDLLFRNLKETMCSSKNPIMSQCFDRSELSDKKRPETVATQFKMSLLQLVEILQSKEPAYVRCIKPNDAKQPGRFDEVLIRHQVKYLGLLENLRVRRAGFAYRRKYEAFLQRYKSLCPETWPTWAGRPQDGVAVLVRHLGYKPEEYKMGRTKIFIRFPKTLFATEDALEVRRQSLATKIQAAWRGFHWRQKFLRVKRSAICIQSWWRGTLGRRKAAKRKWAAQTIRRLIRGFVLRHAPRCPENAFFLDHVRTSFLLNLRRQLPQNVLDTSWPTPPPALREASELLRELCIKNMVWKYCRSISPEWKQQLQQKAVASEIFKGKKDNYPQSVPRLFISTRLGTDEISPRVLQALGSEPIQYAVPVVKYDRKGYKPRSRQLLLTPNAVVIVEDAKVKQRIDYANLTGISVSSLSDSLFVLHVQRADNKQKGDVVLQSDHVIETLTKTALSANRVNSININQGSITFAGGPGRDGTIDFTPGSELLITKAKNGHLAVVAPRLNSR
PPIA, sequence (P62937 2-165 limits assumed): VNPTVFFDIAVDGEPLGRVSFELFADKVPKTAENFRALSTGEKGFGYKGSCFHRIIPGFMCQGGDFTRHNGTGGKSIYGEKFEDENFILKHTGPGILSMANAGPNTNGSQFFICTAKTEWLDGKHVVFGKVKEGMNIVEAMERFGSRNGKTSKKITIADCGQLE
FABP5, sequence (Q01469 2-135 limits assumed): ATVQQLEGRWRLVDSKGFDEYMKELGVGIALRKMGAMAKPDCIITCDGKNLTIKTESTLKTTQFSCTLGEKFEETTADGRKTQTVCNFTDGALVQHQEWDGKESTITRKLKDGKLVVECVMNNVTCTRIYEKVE
C1orf68 (human), sequence (Q5T750 whole entry): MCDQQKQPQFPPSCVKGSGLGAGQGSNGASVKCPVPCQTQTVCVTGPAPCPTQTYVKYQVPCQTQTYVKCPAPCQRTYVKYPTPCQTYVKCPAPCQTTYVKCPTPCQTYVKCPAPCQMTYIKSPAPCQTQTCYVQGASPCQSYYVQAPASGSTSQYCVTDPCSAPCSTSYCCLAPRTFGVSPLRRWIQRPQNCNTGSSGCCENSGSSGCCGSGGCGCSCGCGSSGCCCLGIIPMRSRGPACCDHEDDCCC

In turn, “IgG control (Millipore Sigma 12-371) (antibody)” registered a co-IP mass spectrometry count with RPS18 of 9.
For the substance “N-terminal FLAG tagged B3GNT2 (from UniProt Q9NY97 1-397) (enzyme)”, the co-IP mass spectrometry count with SPRR2E is 16; with ATP5F1B, 2; in the assay with UBA52, 4; in the assay with S100A9 it was 18; in the assay with SERPINB12, 4; with FABP5 it was 6. For the same substance, the co-IP mass spectrometry count worked out at 6 with TRIM21; 3 with ACTR3; 3 in the assay with AHNAK; 15 in the assay with S100A8; 6 with PPIA; 4 with PCMT1. Also, the co-IP mass spectrometry count worked out at 2 with YWHAZ; 5 in the assay with ENO1; 4 with STRAP; 3 with SSR1; 13 in the assay with C1orf68 (human); 3 with SAMM50 (human). Besides, the co-IP mass spectrometry count stood at 3 with HUWE1 (human); 11 with RPL18 (human); 2 with MARS (human); 3 with EPRS (human); 3 in the assay with DNAJB11 (human); 2 in the assay with ILF3 (human). For the same substance, the co-IP mass spectrometry count with MSN (human) worked out at 3; in the assay with PIGR (human), 2; in the assay with SPRR1A (human) it was 4; with ARF4 (human), 4; with PSMD4 (human), 2; in the assay with EIF4A1 (human), 2. In addition, the co-IP mass spectrometry count in the assay with SLC25A5 (human) stood at 19; in the assay with MYO1C (human), 4; with ZC3HAV1 (human) it was 3; in the assay with HSPD1 (human) it was 10; with ARHGEF2 (human), 0; with UGGT1 (human), 2. In addition, the figures for the co-IP mass spectrometry count with RPS27 (human) and in the assay with SEL1L (human) were 2 and 3, respectively.
